The assay addresses human PD-1 (programmed cell death protein-1) (human, UniProt Q15116 25-288). Briefly: flow cytometry on enriched, anti-CD3-activated human T cells; sdAb-Fc titrated 167 nM to 0.00847 nM, anti-human IgG Alexa Fluor 647 detection.

We go through one molecule from patent US20200190193A1 (INHIBRX, published 2020).

Chain of human PD-1 (programmed cell death protein-1) (Q15116 25-288 limits assumed): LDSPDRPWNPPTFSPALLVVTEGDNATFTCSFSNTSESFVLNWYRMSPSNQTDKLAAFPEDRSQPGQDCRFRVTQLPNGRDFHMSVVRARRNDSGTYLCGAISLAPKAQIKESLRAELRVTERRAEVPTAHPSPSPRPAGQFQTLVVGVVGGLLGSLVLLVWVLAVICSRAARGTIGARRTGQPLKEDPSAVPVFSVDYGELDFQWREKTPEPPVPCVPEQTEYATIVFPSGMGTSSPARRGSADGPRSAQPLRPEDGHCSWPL
Description: For enrichment and activation of human T cells, Peripheral blood mononuclear cells (PBMCs) were isolated from human donor blood using density gradient centrifugation. Blood samples were diluted with PBS/2% FBS (1:2) and 30 mL of diluted blood was layered onto 15 mL of Lymphoprep density gradient medium. After centrifugation, the PBMC layer at the interphase of plasma and Lymphoprep was removed and remaining red blood cells were lysed using red blood cell lysis buffer for 5 minutes at room temperature. Non-T cell populations were labeled with biotinylated anti-lineage marker antibodies against CD14, CD16, CD19, CD20, CD36, CD56, CD123, TCR γ/δ (20 minutes, room temperature) and depleted using magnetic streptavidin particles. The unbound cell supernatant containing the T cell fraction was retained. Enriched human T cells were activated for 3 days by plating them at a density of about 2×10⁶ cells per mL media in tissue culture plates coated with 1 μg/mL mouse anti-human CD3 (OKT3). Activated T cells were washed once in PBS before further use in binding assays.

B1: hz18H10v7 PD-1 sdAb-Fc fusion protein (humanized variant of 18H10) (Fc fusion)
chain: EVQLVESGGGEVQPGGSLRLSCAASGSITGANTMGWYRQAPGKQRDLVALIGNYVTHYAESVKGRFTISRDNAKNTVYLQMSSLRAEDTAVYYCYLYTDNLGTSWGQGTLVTVKP
notes: also called humanized 18H10 (hzv7); hzv7; not shown: hinge/linker and Fc of the sdAb-Fc fusion are not specified for the humanized variants
Regarding B1, the binding result is “binds”.
